Experimental data published in patent publication US9724381B2 (THE ADMINISTRATORS OF THE TULANE EDUCATIONAL FUND, priority 2009, dated 2017).
Several values for one entry are separate records, joined by “and”; a condition that tells them apart may be missing. Identical values can stand only once. One block for each substance: values may come before it. Where no end group is shown, it is not given here. [ ]: non-standard residue; d: D form. d1Nal = N[C@H](Cc1cccc2ccccc12)C(=O)O; d2Nal = N[C@H](Cc1ccc2ccccc2c1)C(=O)O; dCha = N[C@H](CC1CCCCC1)C(=O)O; Nle = CCCC[C@H](N)C(=O)O; Dab = NCC[C@H](N)C(=O)O; Inp = O=C(O)C1CCNCC1; βAla = NCCC(=O)O

Molecular target: Ghrelin/GHRP/GHS Receptor (Rattus norvegicus, UniProt O08725)
Test: In vivo GH release in rat (serum GH by RIA after i.v. peptide)
Details: for Unstimulated Basal GH Release from rat: Table 3; for Unstimulated Basal GH release from rats: Table 5; for Unstimulated GH release from rats: −S
Procedure: For the in vivo assay of GH Release in rat, immature female Sprague Dawley rats were obtained from Charles River from Wilmington, Mass. After arrival they were housed at 25° C. with a 14:10 h light:dark cycle. Water and Purina rat chow were available at libitum. Pups were weaned at 21 days of age.
Immature twenty six day old female Sprague Dawley rats, 3-6 rats per treatment dose, were pretreated with pentobarbital 20 minutes before iv injection of vehicle/peptide or peptide plus stimulator. Injection was made as a 0.1 ml solution. For the non-pentobarbital treated rat assay, peptides were administered iv into the tail vein of conscious rats. All animals were sacrificed by guillotine after iv peptide or vehicle. Trunk blood was collected at +10-15 minutes […], allowed to clot, centrifuged and serum stored until assayed for GH levels by RIA. The GH RIA reagents were distributed by the NIH. Control data was collected from rats treated with only the corresponding vehicle in the absence of peptide or stimulator. Control stimulated data was collected from rats treated with stimulator alone in the absence of any peptide.

[1] = peptide antagonist alone 10 μg i.v.
[2] = peptide antagonist alone 30 μg i.v.
[3] = Table 2, peptide antagonist 30 μg i.v. + stimulator DAla-DβNal-Ala-Trp-DPhe-Lys-NH2 0.3 μg
[4] = Table 2, peptide antagonist 10 μg i.v. + stimulator DAla-DβNal-Ala-Trp-DPhe-Lys-NH2 1 μg
[5] = Table 2, peptide antagonist 30 μg i.v. + stimulator DAla-DβNal-Ala-Trp-DPhe-Lys-NH2 1 μg
[6] = Table 2, peptide antagonist 3 μg i.v. + stimulator DAla-DβNal-Ala-Trp-DPhe-Lys-NH2 1 μg
[7] = Table 2, peptide antagonist 100 μg i.v. + stimulator DAla-DβNal-Ala-Trp-DPhe-Lys-NH2 1 μg
[8] = peptide antagonist alone 1 μg i.v.
[9] = peptide antagonist alone 3 μg i.v.

Sequence of Ghrelin/GHRP/GHS Receptor (O08725 whole entry): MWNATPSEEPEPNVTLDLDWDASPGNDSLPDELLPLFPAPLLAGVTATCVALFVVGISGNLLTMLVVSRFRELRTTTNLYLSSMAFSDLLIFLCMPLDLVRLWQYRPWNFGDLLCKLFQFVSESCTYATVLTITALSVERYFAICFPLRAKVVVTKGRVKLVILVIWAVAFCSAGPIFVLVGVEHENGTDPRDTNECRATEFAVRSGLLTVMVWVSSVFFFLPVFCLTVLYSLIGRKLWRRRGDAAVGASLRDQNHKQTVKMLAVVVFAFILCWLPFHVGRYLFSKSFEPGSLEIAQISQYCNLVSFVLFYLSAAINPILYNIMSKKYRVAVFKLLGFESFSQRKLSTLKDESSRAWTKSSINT

Stimulated GH release from rat [3]: 1487 ± 397 ng/mL
Substance: Ala-His-DTrp-DLys-Trp-DPhe-Lys-NH2 (AH[dW][dK]W[dF]K-NH2; N-terminus assumed; SMILES C[C@H](N)C(=O)N[C@@H](Cc1c[nH]cn1)C(=O)N[C@H](Cc1c[nH]c2ccccc12)C(=O)N[C@H](CCCCN)C(=O)N[C@@H](Cc1c[nH]c2ccccc12)C(=O)N[C@H](Cc1ccccc1)C(=O)N[C@@H](CCCCN)C(N)=O)

Unstimulated Basal GH Release from rat (peptide alone 1 μg i.v.): 199 ± 63 ng/mL
Unstimulated Basal GH Release from rat (peptide alone 3 μg i.v.): 266 ± 68 ng/mL
Unstimulated Basal GH Release from rat (peptide alone 10 μg i.v.): 199 ± 23 ng/mL
Unstimulated Basal GH Release from rat (peptide alone 30 μg i.v.): 346 ± 82 ng/mL
Unstimulated Basal GH Release from rat (peptide alone 100 μg i.v.): 350 ± 61 ng/mL
Substance: DcyclohexylAla-Ala-Phe-DTrp-Lys-NH2 ([dCha]AF[dW]K-NH2; N-terminus assumed; SMILES C[C@H](NC(=O)[C@H](N)CC1CCCCC1)C(=O)N[C@@H](Cc1ccccc1)C(=O)N[C@H](Cc1c[nH]c2ccccc12)C(=O)N[C@@H](CCCCN)C(N)=O)

Unstimulated Basal GH Release from rat (peptide alone 3 μg i.v.): 235 ± 43 ng/mL
Unstimulated Basal GH Release from rat (peptide alone 10 μg i.v.): 178 ± 33 ng/mL
Unstimulated Basal GH Release from rat (peptide alone 30 μg i.v.): 172 ± 15 ng/mL
Unstimulated Basal GH Release from rat (peptide alone 100 μg i.v.): 185 ± 39 ng/mL
Substance: DAla-DβNal-Ala-Ala-DAla-Lys-NH2 ([dA][d2Nal]AA[dA]K-NH2; N-terminus assumed; SMILES C[C@H](NC(=O)[C@H](C)NC(=O)[C@@H](Cc1ccc2ccccc2c1)NC(=O)[C@@H](C)N)C(=O)N[C@H](C)C(=O)N[C@@H](CCCCN)C(N)=O)

Stimulated Control 0.3 μg, GH release from rat (Table 2, stimulator DAla-DβNal-Ala-Trp-DPhe-Lys-NH2 alone, 0.3 μg): 2253 ± 252 ng/mL and 1412 ± 400 ng/mL
Substance: DAla-DβNal-Ala-Trp-DPhe-Lys-NH2 ([dA][d2Nal]AW[dF]K-NH2) [reference compound]
Stimulated Control 1 μg, GH release from rat (Table 2, stimulator DAla-DβNal-Ala-Trp-DPhe-Lys-NH2 alone, 1 μg): 3214 ± 276 ng/mL and 3105 ± 429 ng/mL and 2406 ± 288 ng/mL and 2825 ± 134 ng/mL and 3104 ± 429 ng/mL

Unstimulated Basal GH Release from rat (peptide alone 30 μg i.v.): 341 ± 46 ng/mL
Unstimulated Basal GH Release from rat (peptide alone 100 μg i.v.): 636 ± 171 ng/mL
Substance: βAla-Trp-DAla-DTrp-Phe-NH2 ([βAla]W[dA][dW]F-NH2; N-terminus assumed; SMILES C[C@@H](NC(=O)[C@H](Cc1c[nH]c2ccccc12)NC(=O)CCN)C(=O)N[C@H](Cc1c[nH]c2ccccc12)C(=O)N[C@@H](Cc1ccccc1)C(N)=O)

Unstimulated Basal GH Release from rat (peptide alone 1 μg i.v.): 623 ± 60 ng/mL
Unstimulated Basal GH Release from rat (peptide alone 3 μg i.v.): 694 ± 70 ng/mL
Unstimulated Basal GH Release from rat (peptide alone 10 μg i.v.): 654 ± 58 ng/mL
Unstimulated Basal GH Release from rat (peptide alone 30 μg i.v.): 713 ± 71 ng/mL
Substance: DβNal-Ala-Trp-DPhe-Ala-NH2 ([d2Nal]AW[dF]A-NH2; N-terminus assumed; SMILES C[C@H](NC(=O)[C@@H](Cc1ccccc1)NC(=O)[C@H](Cc1c[nH]c2ccccc12)NC(=O)[C@H](C)NC(=O)[C@H](N)Cc1ccc2ccccc2c1)C(N)=O)

Unstimulated Basal GH Release from rat (peptide alone 3 μg i.v.): 253 ± 79 ng/mL
Unstimulated Basal GH Release from rat (peptide alone 10 μg i.v.): 277 ± 43 ng/mL
Unstimulated Basal GH Release from rat (peptide alone 30 μg i.v.): 347 ± 66 ng/mL
Unstimulated Basal GH Release from rat (peptide alone 100 μg i.v.): 645 ± 117 ng/mL
Substance: DβNal-Ala-Trp-DPhe-Leu-NH2 ([d2Nal]AW[dF]L-NH2; N-terminus assumed; SMILES CC(C)C[C@H](NC(=O)[C@@H](Cc1ccccc1)NC(=O)[C@H](Cc1c[nH]c2ccccc12)NC(=O)[C@H](C)NC(=O)[C@H](N)Cc1ccc2ccccc2c1)C(N)=O)

Stimulated GH release from rat [6]: 2771 ± 157 ng/mL
Stimulated GH release from rat [4]: 2341 ± 416 ng/mL
Stimulated GH release from rat [5]: 1948 ± 450 ng/mL
Stimulated GH release from rat [7]: 1639 ± 221 ng/mL
Substance: Alaψ[CH2NH]-DβNal-Ala-Trp-DPhe-Lys-NH2 (A[d2Nal]AW[dF]K-NH2; also: Ala1-DβNal2 reduced bond ψ[CH2NH])

Unstimulated Basal GH Release from rat (peptide alone 3 μg i.v.): 255 ± 38 ng/mL
Unstimulated Basal GH Release from rat (peptide alone 30 μg i.v.): 288 ± 31 ng/mL
Unstimulated Basal GH Release from rat (peptide alone 100 μg i.v.): 386 ± 57 ng/mL
Substance: DAla-DβNal-Ala-Thr-DThr-Lys-NH2 ([dA][d2Nal]AT[dT]K-NH2; N-terminus assumed; SMILES C[C@H](NC(=O)[C@@H](Cc1ccc2ccccc2c1)NC(=O)[C@@H](C)N)C(=O)N[C@H](C(=O)N[C@@H](C(=O)N[C@@H](CCCCN)C(N)=O)[C@H](C)O)[C@@H](C)O)

Unstimulated Basal GH release from rats [8]: 60 ± 5 ng/mL
Unstimulated Basal GH release from rats [9]: 130 ± 24 ng/mL
Unstimulated Basal GH release from rats [1]: 134 ± 31 ng/mL
Substance: DThr-DαNal-DTrp-DPro-Arg-NH2 ([dT][d1Nal][dW][dP]R-NH2; N-terminus assumed; SMILES C[C@H](O)[C@@H](N)C(=O)N[C@H](Cc1cccc2ccccc12)C(=O)N[C@H](Cc1c[nH]c2ccccc12)C(=O)N1CCC[C@@H]1C(=O)N[C@@H](CCCNC(=N)N)C(N)=O)

Unstimulated Basal GH release from rats [8]: 80 ± 35 ng/mL
Unstimulated Basal GH release from rats [1]: 62 ± 15 ng/mL
Unstimulated Basal GH release from rats [2]: 67 ± 8 ng/mL
Substance: αγAbu-DTrp-DTrp-Ser-NH2 ([Dab][dW][dW]S-NH2; N-terminus assumed; SMILES NCC[C@H](N)C(=O)N[C@H](Cc1c[nH]c2ccccc12)C(=O)N[C@H](Cc1c[nH]c2ccccc12)C(=O)N[C@@H](CO)C(N)=O)

Unstimulated Basal GH release from rats [8]: 127 ± 32 ng/mL
Unstimulated Basal GH release from rats [9]: 147 ± 37 ng/mL
Substance: Alaψ[CH2NH]His-DTrp-Ala-Trp-DPhe-Lys-NH2 (AH[dW]AW[dF]K-NH2; also: reduced bond ψ[CH2NH] between Ala1 and His2)

More lines, now with the values behind:

Substance: DAla-DβNal-DAla-DTrp-Phe-Lys-NH2 ([dA][d2Nal][dA][dW]FK-NH2)
Unstimulated Basal GH Release from rat (peptide alone 1 μg i.v.): 184 ± 55 ng/mL
Unstimulated Basal GH Release from rat (peptide alone 3 μg i.v.): 467 ± 201 ng/mL
Unstimulated Basal GH Release from rat (peptide alone 10 μg i.v.): 244 ± 107 ng/mL

Substance: DAla-DcyclohexylAla-Ala-Phe-DPhe-Nle-NH2 ([dA][dCha]AF[dF][Nle]-NH2; N-terminus assumed; SMILES CCCC[C@H](NC(=O)[C@@H](Cc1ccccc1)NC(=O)[C@H](Cc1ccccc1)NC(=O)[C@H](C)NC(=O)[C@@H](CC1CCCCC1)NC(=O)[C@@H](C)N)C(N)=O)
Unstimulated Basal GH Release from rat (peptide alone 1 μg i.v.): 435 ± 152 ng/mL
Unstimulated Basal GH Release from rat (peptide alone 3 μg i.v.): 195 ± 34 ng/mL
Unstimulated Basal GH Release from rat (peptide alone 10 μg i.v.): 250 ± 41 ng/mL
Unstimulated Basal GH Release from rat (peptide alone 30 μg i.v.): 393 ± 51 ng/mL
Unstimulated Basal GH Release from rat (peptide alone 100 μg i.v.): 697 ± 75 ng/mL

Substance: inip-Trp-Trp-Phe-NH2 ([Inp]WWF-NH2; N-terminus assumed; SMILES NC(=O)[C@H](Cc1ccccc1)NC(=O)[C@H](Cc1c[nH]c2ccccc12)NC(=O)[C@H](Cc1c[nH]c2ccccc12)NC(=O)C1CCNCC1)
Unstimulated Basal GH release from rats [1]: 69 ± 3 ng/mL
Unstimulated Basal GH release from rats [2]: 81 ± 10 ng/mL

Substance: Lys-DHis-DTrp-Phe-NH2 (K[dH][dW]F-NH2; N-terminus assumed; SMILES NCCCC[C@H](N)C(=O)N[C@H](Cc1c[nH]cn1)C(=O)N[C@H](Cc1c[nH]c2ccccc12)C(=O)N[C@@H](Cc1ccccc1)C(N)=O)
Unstimulated Basal GH release from rats [1]: 121 ± 24 ng/mL

Substance: DLys-DβNal-Ala-Trp-DPhe-Lys-NH2 ([dK][d2Nal]AW[dF]K-NH2; N-terminus assumed; SMILES C[C@H](NC(=O)[C@@H](Cc1ccc2ccccc2c1)NC(=O)[C@H](N)CCCCN)C(=O)N[C@@H](Cc1c[nH]c2ccccc12)C(=O)N[C@H](Cc1ccccc1)C(=O)N[C@@H](CCCCN)C(N)=O)
Unstimulated GH release from rats (Table 4, pentobarbital rats, peptide 3 μg i.v.): 616 ± 169 ng/mL
Unstimulated GH release from rats (Table 4, pentobarbital rats, peptide 10 μg i.v.): 847 ± 17 ng/mL
Unstimulated GH release from rats (Table 4, pentobarbital rats, peptide 30 μg i.v.): 629 ± 146 ng/mL
Unstimulated GH release from rats (Table 4, pentobarbital rats, peptide 100 μg i.v.): 228 ± 45 ng/mL

Substance: Glyψ[CH2NH]-DβNal-Ala-Trp-DPhe-Lys-NH2 (G[d2Nal]AW[dF]K-NH2; also: reduced Gly-ψ[CH2NH] bond between Gly1 and DβNal2)
Stimulated GH release from rat (Table 2, peptide antagonist 10 μg i.v. + stimulator DAla-DβNal-Ala-Trp-DPhe-Lys-NH2 0.3 μg): 1112 ± 200 ng/mL
Stimulated GH release from rat [4]: 2307 ± 176 ng/mL and 1842 ± 454 ng/mL
Stimulated GH release from rat [3]: 578 ± 82 ng/mL
Stimulated GH release from rat [5]: 890 ± 236 ng/mL and 1135 ± 140 ng/mL

Substance: Glyψ[CH2NH]-DβNal-DLys-Trp-DPhe-Lys-NH2 (G[d2Nal][dK]W[dF]K-NH2; also: reduced Gly-ψ[CH2NH] bond between Gly1 and DβNal2)
Stimulated GH release from rat (Table 2, peptide antagonist 1 μg i.v. + stimulator DAla-DβNal-Ala-Trp-DPhe-Lys-NH2 1 μg): 2305 ± 320 ng/mL
Stimulated GH release from rat [6]: 1990 ± 196 ng/mL
Stimulated GH release from rat [4]: 1550 ± 284 ng/mL
Stimulated GH release from rat [5]: 946 ± 133 ng/mL
Stimulated GH release from rat [7]: 462 ± 122 ng/mL

Substance: Tyr-DAla-Sar-NMePhe-NH2
Stimulated (S) GH release from rats (Table 4, non-pentobarbital rats, P + S, peptide 30 μg i.v., stimulator 10 μg): 24 ± 6 ng/mL
Unstimulated GH release from rats (Table 4, non-pentobarbital rats, peptide 30 μg i.v.): 18 ± 4 ng/mL
